This data set relates to WT1-specific CTL targets (DC transduced with WT1 or pulsed with WT1 peptides). The data set can be described thus: CTL by chromium release after WT1 DNA or adenovirus/alphavirus immunization. The class given is in vivo, C57/BI6 mice; HLA-A2/Kb transgenic mice. Conditions: C57/BI6 mice, 3 x 100 μg, 25:1 E:T ratio. Here is the method: Mice were sacrificed 2-3 weeks after the final immunization and CTL were evaluated by standard Chromium release assay.
Mice were sacrificed 2-3 weeks after the final immunization and CTL were evaluated by standard Chromium release assay. […] Thus, this immunization strategy also effectively elicits WT1-specific CTL in vivo.

We go through one molecule from US7915393B2 (Corixa Corporation, priority 2001, dated 2011).

B1: WT1 DNA: naked DNA encoding the splice variant of WT1, SEQ ID NO:381 (nucleic acid)
DNA: ATGGGCTCCGACGTTCGTGACCTGAACGCACTGCTGCCGGCAGTTCCGTCCCTGGGTGGTGGTGGTGGTTGCGCACTGCCGGTTAGCGGTGCAGCACAGTGGGCTCCGGTTCTGGACTTCGCACCGCCGGGTGCATCCGCATACGGTTCCCTGGGTGGTCCGGCACCGCCGCCGGCACCGCCGCCGCCGCCGCCGCCGCCGCCGCACTCCTTCATCAAACAGGAACCGAGCTGGGGTGGTGCAGAACCGCACGAAGAACAGTGCCTGAGCGCATTCACCGTTCACTTCTCCGGCCAGTTCACTGGCACAGCCGGAGCCTGTCGCTACGGGCCCTTCGGTCCTCCTCCGCCCAGCCAGGCGTCATCCGGCCAGGCCAGGATGTTTCCTAACGCGCCCTACCTGCCCAGCTGCCTCGAGAGCCAGCCCGCTATTCGCAATCAGGGTTACAGCACGGTCACCTTCGACGGGACGCCCAGCTACGGTCACACGCCCTCGCACCATGCGGCGCAGTTCCCCAACCACTCATTCAAGCATGAGGATCCCATGGGCCAGCAGGGCTCGCTGGGTGAGCAGCAGTACTCGGTGCCGCCCCCGGTCTATGGCTGCCACACCCCCACCGACAGCTGCACCGGCAGCCAGGCTTTGCTGCTGAGGACGCCCTACAGCAGTGACAATTTATACCAAATGACATCCCAGCTTGAATGCATGACCTGGAATCAGATGAACTTAGGAGCCACCTTAAAGGGCCACAGCACAGGGTACGAGAGCGATAACCACACAACGCCCATCCTCTGCGGAGCCCAATACAGAATACACACGCACGGTGTCTTCAGAGGCATTCAGGATGTGCGACGTGTGCCTGGAGTAGCCCCGACTCTTGTACGGTCGGCATCTGAGACCAGTGAGAAACGCCCCTTCATGTGTGCTTACCCAGGCTGCAATAAGAGATATTTTAAGCTGTCCCACTTACAGATGCACAGCAGGAAGCACACTGGTGAGAAACCATACCAGTGTGACTTCAAGGACTGTGAACGAAGGTTTTTTCGTTCAGACCAGCTCAAAAGACACCAAAGGAGACATACAGGTGTGAAACCATTCCAGTGTAAAACTTGTCAGCGAAAGTTCTCCCGGTCCGACCACCTGAAGACCCACACCAGGACTCATACAGGTGAAAAGCCCTTCAGCTGTCGGTGGCCAAGTTGTCAGAAAAAGTTTGCCCGGTCAGATGAATTAGTCCGCCATCACAACATGCATCAGAGAAACATGACCAAACTCCAGCTGGCGCTTTGAG
In the case of B1, the “lysis (WT1-specific cytotoxic T cell response)” value turned out to be 40%.
